Legend:
HeLa Kyoto [1] = experiment: thermal stability score vs G1/S (z-score of summed log2 fold changes over temperatures); higher = more thermally stable than in G1/S
HeLa Kyoto [2] = experiment: solubility in G1/S (NP-40 vs SDS abundance) (log2 ratio); higher = more soluble; conditions: cell cycle stage: G1/S
HeLa Kyoto [3] = experiment: solubility change mitosis vs G1/S (difference of NP-40 vs SDS log2 ratios) (log2 ratio difference); higher = more soluble in mitosis
HeLa Kyoto [4] = experiment: melting temperature (median over replicates), in situ; higher = more thermally stable
[5] = cell cycle stage: early G1 (4.5 h after nocodazole release)
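For melting temperature (median over replicates), in situ in this document: HeLa Kyoto cells synchronized by double thymidine or nocodazole block, proteins quantified by TMT10plex mass spectrometry, three independent biological replicates.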
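For solubility change mitosis vs G1/S (difference of NP-40 vs SDS log2 ratios) in this document: synchronized HeLa Kyoto cells (double thymidine block for G1/S, nocodazole release for mitosis), protein amounts in NP-40 versus SDS lysates quantified by mass spectrometry, three biological replicates.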
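For solubility in G1/S (NP-40 vs SDS abundance) in this document: HeLa Kyoto cells arrested at G1/S by double thymidine block, proteins quantified by TMT10plex mass spectrometry in mild NP-40 versus SDS extracts, three biological replicates.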
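For thermal stability score vs G1/S (z-score of summed log2 fold changes over temperatures) in this document: synchronized HeLa Kyoto cells, proteins quantified by TMT10plex mass spectrometry, three biological replicates, mitosis taken 0.5 h after nocodazole release, G1/S directly after double thymidine block.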

Sequence	thermal stability score (HeLa Kyoto [1]; [5])	thermal stability score (HeLa Kyoto [1]; cell cycle stage: mitosis)	solubility in G1/S (log2) (HeLa Kyoto [2])	solubility change mitosis (log2) (HeLa Kyoto [3])	melting temperature (HeLa Kyoto [4]; cell cycle stage: G1/S) [°C]	melting temperature (HeLa Kyoto [4]; cell cycle stage: mitosis) [°C]
MRRLPRALLLQLRLALLVAAGAPEVLVSAPRSLVWGPGLQAAVVLPVRYFYLQAVNSEGQNLTRSPAGETPFKVVVKSLSPKELVRIHVPKPLDRNDGTFLMRYRMYETVDEGLKIEVLYGDEHVAQSPYILKGPVYHEYCECPEDPQAWQKTLSCPTKEPQIAKDFASFPSINLQQMLKEVPKRFGDERGAIVHYTILNNHVYRRSLGKYTDFKMFSDEILLSLTRKVLLPDLEFYVNLGDWPLEHRKVNGTPSPIPIISWCGSLDSRDVVLPTYDITHSMLEAMRGVTNDLLSIQGNTGPSWINKTERAFFRGRDSREERLQLVQLSKENPQLLDAGITGYFFFQEKEKELGKAKLMGFFDFFKYKYQVNVDGTVAAYRYPYLMLGDSLVLKQDSPYYEHFYMALEPWKHYVPIKRNLSDLLEKVKWAKENDEEAKKIAKEGQLMARDLLQPHRLYCYYYQVLQKYAERQSSKPEVRDGMELVPQPEDSTAICQCHRKKPSREEL [KDELC2]	4.98	4.71	0.282	-0.048	53.8	54.9
MRSAAAAPRSPAVATESRRFAAARWPGWRSLQRPARRSGRGGGGAAPGPYPSAAPPPPGPGPPPSRQSSPPSASDCFGSNGNGGGAFRPGSRRLLGLGGPPRPFVVLLLPLASPGAPPAAPTRASPLGARASPPRSGVSLARPAPGCPRPACEPVYGPLTMSLKPQQQQQQQQQQQQQQQQQQQQQQQPPPAAANVRKPGGSGLLASPAAAPSPSSSSVSSSSATAPSSVVAATSGGGRPGLGRGRNSNKGLPQSTISFDGIYANMRMVHILTSVVGSKCEVQVKNGGIYEGVFKTYSPKCDLVLDAAHEKSTESSSGPKREEIMESILFKCSDFVVVQFKDMDSSYAKRDAFTDSAISAKVNGEHKEKDLEPWDAGELTANEELEALENDVSNGWDPNDMFRYNEENYGVVSTYDSSLSSYTVPLERDNSEEFLKREARANQLAEEIESSAQYKARVALENDDRSEEEKYTAVQRNSSEREGHSINTRENKYIPPGQRNREVISWGSGRQNSPRMGQPGSGSMPSRSTSHTSDFNPNSGSDQRVVNGGVPWPSPCPSPSSRPPSRYQSGPNSLPPRAATPTRPPSRPPSRPSRPPSHPSAHGSPAPVSTMPKRMSSEGPPRMSPKAQRHPRNHRVSAGRGSISSGLEFVSHNPPSEAATPPVARTSPSGGTWSSVVSGVPRLSPKTHRPRSPRQNSIGNTPSGPVLASPQAGIIPTEAVAMPIPAASPTPASPASNRAVTPSSEAKDSRLQDQRQNSPAGNKENIKPNETSPSFSKAENKGISPVVSEHRKQIDDLKKFKNDFRLQPSSTSESMDQLLNKNREGEKSRDLIKDKIEPSAKDSFIENSSSNCTSGSSKPNSPSISPSILSNTEHKRGPEVTSQGVQTSSPACKQEKDDKEEKKDAAEQVRKSTLNPNAKEFNPRSFSQPKPSTTPTSPRPQAQPSPSMVGHQQPTPVYTQPVCFAPNMMYPVPVSPGVQPLYPIPMTPMPVNQAKTYRAVPNMPQQRQDQHHQSAMMHPASAAGPPIAATPPAYSTQYVAYSPQQFPNQPLVQHVPHYQSQHPHVYSPVIQGNARMMAPPTHAQPGLVSSSATQYGAHEQTHAMYACPKLPYNKETSPSFYFAISTGSLAQQYAHPNATLHPHTPHPQPSATPTGQQQSQHGGSHPAPSPVQHHQHQAAQALHLASPQQQSAIYHAGLAPTPPSMTPASNTQSPQNSFPAAQQTVFTIHPSHVQPAYTNPPHMAHVPQAHVQSGMVPSHPTAHAPMMLMTTQPPGGPQAALAQSALQPIPVSTTAHFPYMTHPSVQAHHQQQL [ATXN2]	-0.37	-1.31	-0.281	0.278	52.5	51.9
MRSAAKPWNPAIRAGGHGPDRVRPLPAASSGMKSSKSSTSLAFESRLSRLKRASSEDTLNKPGSTAASGVVRLKKTATAGAISELTESRLRSGTGAFTTTKRTGIPAPREFSVTVSRERSVPRGPSNPRKSVSSPTSSNTPTPTKHLRTPSTKPKQENEGGEKAALESQVRELLAEAKAKDSEINRLRSELKKYKEKRTLNAEGTDALGPNVDGTSVSPGDTEPMIRALEEKNKNFQKELSDLEEENRVLKEKLIYLEHSPNSEGAASHTGDSSCPTSITQESSFGSPTGNQMSSDIDEYKKNIHGNALRTSGSSSSDVTKASLSPDASDFEHITAETPSRPLSSTSNPFKSSKCSTAGSSPNSVSELSLASLTEKIQKMEENHHSTAEELQATLQELSDQQQMVQELTAENEKLVDEKTILETSFHQHRERAEQLSQENEKLMNLLQERVKNEEPTTQEGKIIELEQKCTGILEQGRFEREKLLNIQQQLTCSLRKVEEENQGALEMIKRLKEENEKLNEFLELERHNNNMMAKTLEECRVTLEGLKMENGSLKSHLQGEKQKATEASAVEQTAESCEVQEMLKVARAEKDLLELSCNELRQELLKANGEIKHVSSLLAKVEKDYSYLKEICDHQAEQLSRTSLKLQEKASESDAEIKDMKETIFELEDQVEQHRAVKLHNNQLISELESSVIKLEEQKSDLERQLKTLTKQMKEETEEWRRFQADLQTAVVVANDIKCEAQQELRTVKRKLLEEEEKNARLQKELGDVQGHGRVVTSRAAPPPVDEEPESSEVDAAGRWPGVCVSRTSPTPPESATTVKSLIKSFDLGRPGGAGQNISVHKTPRSPLSGIPVRTAPAAAVSPMQRHSTYSSVRPASRGVTQRLDLPDLPLSDILKGRTETLKPDPHLRKSPSLESLSRPPSLGFGDTRLLSASTRAWKPQSKLSVERKDPLAALAREYGGSKRNALLKWCQKKTQGYANIDITNFSSSWSDGLAFCALLHTYLPAHIPYQELNSQEKKRNLLLAFEAAESVGIKPSLELSEMLYTDRPDWQSVMQYVAQIYKYFET [SPECC1]	-1.45	-1.95	0.148	-0.147	52.2	51.5
MRSGGRGRPRLRLGERGLMEPLLPPKRRLLPRVRLLPLLLALAVGSAFYTIWSGWHRRTEELPLGRELRVPLIGSLPEARLRRVVGQLDPQRLWSTYLRPLLVVRTPGSPGNLQVRKFLEATLRSLTAGWHVELDPFTASTPLGPVDFGNVVATLDPRAARHLTLACHYDSKLFPPGSTPFVGATDSAVPCALLLELAQALDLELSRAKKQAAPVTLQLLFLDGEEALKEWGPKDSLYGSRHLAQLMESIPHSPGPTRIQAIELFMLLDLLGAPNPTFYSHFPRTVRWFHRLRSIEKRLHRLNLLQSHPQEVMYFQPGEPFGSVEDDHIPFLRRGVPVLHLISTPFPAVWHTPADTEVNLHPPTVHNLCRILAVFLAEYLGL [QPCTL]	3.48	4.18	-0.29	0.00122	51.9	52.7

Reference: the supplement of paper PMC5998384
